Results reported in US9796965B2, “Use of Taq polymerase mutant enzymes for nucleic acid amplification in the presence of PCR inhibitors” (DNA Polymerase Technology Inc., priority 2006, dated 2017).
Positions count from the first letter of the chain named. Names and notes keep the numbering of the source. “Also recorded” adds a separate entry of the source.

Experiments:
[1] = Functional analysis of codon 708 saturated mutagenesis variants for resistance to PCR inhibitors; type: biochemical; details: for functionality of the 708 substitution: KlenTaq or full-length Taq background
Description: Single amino acid changes of the wild type Taq Glu708 were implicated in both selected qualities of the mutants, blood and soil-resistance.
Saturated mutagenesis was performed at codon 708 of Taq to test functionally the full spectrum of all possible substitutions at this critical position.

[2] = system: 630 bp CCR5 gene target; assay: Real-time PCR of human CCR5 target mixed with crude soil extract and SYBR titration; type: biochemical; details: 4 ng human DNA mixed with crude soil extract, SYBR titrated
Description: A 630 bp CCR5 gene target was amplified from 4 ng of human DNA mixed with crude soil extract and various amounts of SYBR. Klentaq-10 mutant enzyme was compared to it's wild type precursor, and FLAC-22 (SEQ ID NO: 2) was compared to the wild type Fast Start Taq polymerase (Roche). SYBR Green fluorescent dye was titrated to optimize the fluorescent signal for real time detection. PCR was performed in real-time cycler Opticon2, and the amplified products were analyzed both by gel electrophoresis (bottom panels) and SYBR Green dye melting curve profile (top panels).

[3] = system: 0.6 kbp Bacillus cereus target DNA; assay: Real-time PCR of 0.6 kbp Bacillus cereus target challenged with two-fold SYBR green dilutions; details: for SYBR concentration above which amplification failed / SYBR concentration in the presence of which the 0.6 kbp Bacillus cereus target DNA was amplified: 2.5 units enzyme per 50 ul, 20 pg genomic DNA, 40 cycles, no blood
[4] = system: 0.32 kbp 16S microbial target; assay: Real-time PCR of 16S microbial target double challenged with 5% blood and SYBR green dilutions; details: for amplification under double challenge: SYBR green dilutions from 32×, 40 cycles
[5] = system: 0.6 kbp Bacillus cereus target DNA; assay: Real-time PCR of Bacillus cereus target double challenged with 5% and 10% blood and SYBR green dilutions
[6] = system: 244 bp influenza virus target; type: biochemical; details: 5% human serum, 200 μM TaqMan probe, PEC-Plus enhancer
[7] = system: anthrax genome target (1.3 kb Bacillus anthracis); type: biochemical; details: 5% human blood, 32× SYBR Green
[8] = system: endogenous 600 bp target of Bacillus Cereus; assay: Real-time PCR of endogenous Bacillus Cereus target from crude soil extract; type: biochemical; details: soil extract 16%, 8%, 4%, 2%
[9] = system: 244 bp influenza virus RNA target; type: biochemical; details: purified RNA and mimic crude samples with 8% plasma, serum, whole blood; PEC-Plus enhancer
[10] = system: 0.25 kbp Lambda specific target; assay: Real-time PCR of Lambda target challenged with two-fold SYBR green dilutions; details: for SYBR concentration in the presence of which the 0.25 kbp lambda target was amplified: purified DNA template, 2.5 units per 50 ul, 35 cycles

## FLAC-3: full-length Taq mutant with Q substitution at 708
[1]
  functionality of the 708 substitution: only functional in Taq

## FLAC-4: full-length Taq mutant with I substitution at 708
[1]
  functionality of the 708 substitution: only functional in Taq

## FLAC-10: full-length Taq mutant with K substitution at 708, corresponding to Klentaq10
[1]
  functionality of the 708 substitution: efficient

## FLAC-12: full-length Taq mutant with L substitution at 708, corresponding to Klentaq 12
[1]
  functionality of the 708 substitution: efficient

## Fast Start Taq: commercial wild type Taq enzyme (Roche)
[2]
  melting curve profile in crude soil samples: showed a melting curve at very low SYBR concentration
[3]
  SYBR concentration above which amplification failed: higher than 0.2 ×
[4]; 5% blood
  post PCR melting curve analysis: did do not show the correct melting temperature of the product at all
  amplification under double challenge: able to amplify only the positive control

B1: KlenTaq-10: SEQ ID NO: 1; N-terminal deletion at 278 of full-length wild type Taq with substitutions E626K, I707L, E708K (protein)
chain: MGLLHEFGLLESPKALEEAPWPPPEGAFVGFVLSRKEPMWADLLALAAARGGRVHRAPEPYKALRDLKEARGLLAKDLSVLALREGLGLPPGDDPMLLAYLLDPSNTTPEGVARRYGGEWTEEAGERAALSERLFANLWGRLEGEERLLWLYREVERPLSAVLAHMEATGVRLDVAYLRALSLEVAEEIARLEAEVFRLAGHPFNLNSRDQLERVLFDELGLPAIGKTEKTGKRSTSAAVLEALREAHPIVEKILQYRELTKLKSTYIDPLPDLIHPRTGRLHTRFNQTATATGRLSSSDPNLQNIPVRTPLGQRIRRAFIAEEGWLLVALDYSQIELRVLAHLSGDKNLIRVFQEGRDIHTETASWMFGVPREAVDPLMRRAAKTINFGVLYGMSAHRLSQELAIPYEEAQAFIERYFQSFPKVRAWLKKTLEEGRRRGYVETLFGRRRYVPDLEARVKSVREAAERMAFNMPVQGTAADLMKLAMVKLFPRLEEMGARMLLQVHDELVLEAPKERAEAVARLAKEVMEGVYPLAVPLEVEVGIGEDWLSAKE
modifications: Klentaq-10
notes: N-terminal deletion at 278 of full-length wild type Taq with substitutions E626K, I707L, E708K
[5]; 5% and 10% blood, SYBR dilutions from 64×
  SYBR concentration allowing amplification compared to wild type KlenTaq: at least two times higher concentration of SYBR
[5]; with blood (5%, 10%) in the reaction
  resistance toward SYBR green: at least 64 ×
[6]
  real-time RT-PCR TaqMan detection of influenza virus gene: work in RT-PCR TaqMan assays
[3]
  SYBR concentration in the presence of which the 0.6 kbp Bacillus cereus target DNA was amplified: 4 ×
[3]; no blood in the reaction (comparison value given in Example 3)
  resistance toward SYBR green: 4 ×
[1]
  resistance to PCR inhibitors among all 708 mutant variants: superior in all aspects of inhibitors resistance to PCR inhibitors
  functionality of the 708 substitution: efficient
[7]
  amplification/detection of Bacillus anthracis target in blood: specifically amplified the target in 5% blood
[8]
  amplification in the presence of crude soil extract: outperforming the two commercial Tags; also recorded: amplified successfully
[9]
  RT-PCR amplification of influenza virus gene: work in RT-PCR
[10]
  SYBR concentration in the presence of which the 0.25 kbp lambda target was amplified: at least 4 ×

B2: wild type KlenTaq: SEQ ID NO: 3; N-terminal deletion at 278 of full-length Taq, Met/Gly replacing amino acids 279 and 280 (protein)
chain: B1 chain with K348E, L429I, K430E
modifications: Klentaq-1
[2]
  melting curve profile in crude soil samples: showed a melting curve at very low SYBR concentration
[3]
  SYBR concentration above which amplification failed: higher than 1 ×

B3: FLAC-22: SEQ ID NO: 2; full-length Taq with substitutions E626K, I707L, E708N (protein)
chain: MRGMLPLFEPKGRVLLVDGHHLAYRTFHALKGLTTSRGEPVQAVYGFAKSLLKALKEDGDAVIVVFDAKAPSFRHEAYGGYKAGRAPTPEDFPRQLALIKELVDLLGLARLEVPGYEADDVLASLAKKAEKEGYEVRILTADKDLYQLLSDRIHVLHPEGYLITPAWLWEKYGLRPDQWADYRALTGDESDNLPGVKGIGEKTARKLLEEWGSLEALLKNLDRLKPAIREKILAHMDDLKLSWDLAKVRTDLPLEVDFAKRREPDRERLRAFLERLEFGSLLHEFGLLESPKALEEAPWPPPEGAFVGFVLSRKEPMWADLLALAAARGGRVHRAPEPYKALRDLKEARGLLAKDLSVLALREGLGLPPGDDPMLLAYLLDPSNTTPEGVARRYGGEWTEEAGERAALSERLFANLWGRLEGEERLLWLYREVERPLSAVLAHMEATGVRLDVAYLRALSLEVAEEIARLEAEVFRLAGHPFNLNSRDQLERVLFDELGLPAIGKTEKTGKRSTSAAVLEALREAHPIVEKILQYRELTKLKSTYIDPLPDLIHPRTGRLHTRFNQTATATGRLSSSDPNLQNIPVRTPLGQRIRRAFIAEEGWLLVALDYSQIELRVLAHLSGDKNLIRVFQEGRDIHTETASWMFGVPREAVDPLMRRAAKTINFGVLYGMSAHRLSQELAIPYEEAQAFIERYFQSFPKVRAWLNKTLEEGRRRGYVETLFGRRRYVPDLEARVKSVREAAERMAFNMPVQGTAADLMKLAMVKLFPRLEEMGARMLLQVHDELVLEAPKERAEAVARLAKEVMEGVYPLAVPLEVEVGIGEDWLSAKE
modifications: FLAC-22
notes: full-length Taq with substitutions E626K, I707L, E708N
[6]
  real-time RT-PCR TaqMan detection of influenza virus gene: work in RT-PCR TaqMan assays
[3]
  SYBR concentration in the presence of which the 0.6 kbp Bacillus cereus target DNA was amplified: 1.6 ×
[4]; 5% blood
  amplification under double challenge: capable of amplifying with all SYBR concentrations
[4]; 5% blood, melting curve analysis
  SYBR green necessary for real-time PCR detection: at least 4 ×
[4]; with 5% blood in the reaction
  resistance toward SYBR green: at least 32 ×
[1]
  resistance to PCR inhibitors among all 708 mutant variants: superior in all aspects of inhibitors resistance to PCR inhibitors
  functionality of the 708 substitution: only functional in Taq
[7]
  amplification/detection of Bacillus anthracis target in blood: successful real-time PCR detection
[9]
  RT-PCR amplification of influenza virus gene: work in RT-PCR
[10]
  SYBR concentration in the presence of which the 0.25 kbp lambda target was amplified: 2 ×
[10]; without blood in the reaction (comparison value given in Example 4)
  resistance toward SYBR green: 2 ×
